Test [1] has as its target human recombinant EGFR/Fc chimera (R&D systems, cat. no 344-ER) (human) (UniProt P00533). In words: fluorescence polarization, 5 nM dye-labelled ligand, EGFR/Fc titrated 0-258 nM, in solution. (In general: Polarisation of emitted light reports the rotation of a fluorescent probe.)
The target in the next test is T1, human EGFR (Homo sapiens, UniProt P00533).
T1 construct: purchased R&D systems 344-ER
Put plainly: Fluorescence polarization binding assay. As to conditions: dye-labelled ligand 5 nM; human recombinant EGFR/Fc chimera 0-258 nM; 10 min at 30° C.; triplicates; read-out: Kd value towards human EGFR.

The record followed here is patent US20110268660A1, “METHOD FOR DETECTING DYSPLASIA” (priority 2008, published 2011).

A word on the Kd: it is the equilibrium constant for the complex coming apart.

Experimental for human EGFR: The fluorescence polarization binding measurements were performed as triplicates in 384-well microplates in a volume of 40 μL in binding buffer (PBS, 0.01% Tween-20, pH 7.5) using a Tecan Safire fluorescence polarisation plate reader at ex646/em678 nm. The concentration of dye-labelled ligand was held constant (5 nM) and the concentrations of the target (human recombinant EGFR/Fc chimera from R&D systems, cat. no 344-ER) was varied from 0-258 nM. Binding mixtures were equilibrated in the microplate for 10 min at 30° C.
Data fitting was performed via nonlinear regression using SigmaPlot software (version 10) to obtain the Kd value.

With “anti-EGFR Affibody His6-ZEGFR:1907-Cys(Cy5**) (Compound 14) (designed binder)”, the Kd in test [1] was determined as 4.1 nM.
In the case of “anti-EGFR Affibody His6-ZEGFR:1907-Cys(Cy5**) [Compound 14]”, the Kd at human EGFR is 4.1 nM.
